# Measured values published in the Human Domainome abundance scans (Beltran et al. 2025).
# ± gives the uncertainty stated by the source.
# B1: Mineralocorticoid receptor, residues 600 to 675; numbered along this chain, P08235 (parent)
# chain: SKICLVCGDEASGCHYGVVTCGSCKVFFKRAVEGQHNYLCAGRNDCIIDKIRRKNCPACRLQKCLQAGMNLGARKS
# Variants of: B1
# Experiment: abundance fitness (aPCA) (normalised: wild type 0, dead -1); higher = more abundant; growth selection in yeast, the domain comes from the species named
# Conditions: Homo sapiens
row,Variant,abundance fitness
1,SKICLVCGDEASGCHYWVVTCGSCKVFFKRAVEGQHNYLCAGRNDCIIDKIRRKNCPACRLQKCLQAGMNLGARKS,-0.169 ± 0.062
2,SKICLVCGDEASGCHYTVVTCGSCKVFFKRAVEGQHNYLCAGRNDCIIDKIRRKNCPACRLQKCLQAGMNLGARKS,-0.073 ± 0.064
3,SKICLVCGDEASGCHYVVVTCGSCKVFFKRAVEGQHNYLCAGRNDCIIDKIRRKNCPACRLQKCLQAGMNLGARKS,-0.228 ± 0.05
4,SKICLVCGDEASGCHYGVVQCGSCKVFFKRAVEGQHNYLCAGRNDCIIDKIRRKNCPACRLQKCLQAGMNLGARKS,-0.244 ± 0.081
5,SKICLVCGDEASGCHYGVVVCGSCKVFFKRAVEGQHNYLCAGRNDCIIDKIRRKNCPACRLQKCLQAGMNLGARKS,0.032 ± 0.046
6,SKICLVCGDEASGCHYGVVECGSCKVFFKRAVEGQHNYLCAGRNDCIIDKIRRKNCPACRLQKCLQAGMNLGARKS,-0.522 ± 0.1
7,SKICLVCGDEASGCHYGVVHCGSCKVFFKRAVEGQHNYLCAGRNDCIIDKIRRKNCPACRLQKCLQAGMNLGARKS,-0.186 ± 0.094
8,SKICLVCGDEASGCHYGVVACGSCKVFFKRAVEGQHNYLCAGRNDCIIDKIRRKNCPACRLQKCLQAGMNLGARKS,-0.072 ± 0.051
9,SKICLVCGDEASGCHYGVVSCGSCKVFFKRAVEGQHNYLCAGRNDCIIDKIRRKNCPACRLQKCLQAGMNLGARKS,-0.017 ± 0.049
10,SKICLVCGDEASGCHYGVVPCGSCKVFFKRAVEGQHNYLCAGRNDCIIDKIRRKNCPACRLQKCLQAGMNLGARKS,-0.691 ± 0.13
11,SKICLVCGDEASGCHYGVVFCGSCKVFFKRAVEGQHNYLCAGRNDCIIDKIRRKNCPACRLQKCLQAGMNLGARKS,-0.351 ± 0.25
12,SKICLVCGDEASGCHYGVVICGSCKVFFKRAVEGQHNYLCAGRNDCIIDKIRRKNCPACRLQKCLQAGMNLGARKS,-0.082 ± 0.075
13,SKICLVCGDEASGCHYGVVWCGSCKVFFKRAVEGQHNYLCAGRNDCIIDKIRRKNCPACRLQKCLQAGMNLGARKS,-0.325 ± 0.061
14,SKICLVCGDEASGCHYGVVKCGSCKVFFKRAVEGQHNYLCAGRNDCIIDKIRRKNCPACRLQKCLQAGMNLGARKS,-0.727 ± 0.22
15,SKICLVCGDEASGCHYGVVLCGSCKVFFKRAVEGQHNYLCAGRNDCIIDKIRRKNCPACRLQKCLQAGMNLGARKS,-0.17 ± 0.048
16,SKICLVCGDEASGCHYGVVMCGSCKVFFKRAVEGQHNYLCAGRNDCIIDKIRRKNCPACRLQKCLQAGMNLGARKS,-0.194 ± 0.082
17,SKICLVCGDEASGCHYGVVCCGSCKVFFKRAVEGQHNYLCAGRNDCIIDKIRRKNCPACRLQKCLQAGMNLGARKS,-0.062 ± 0.1
18,SKICLVCGDEASGCHYGVVNCGSCKVFFKRAVEGQHNYLCAGRNDCIIDKIRRKNCPACRLQKCLQAGMNLGARKS,0.064 ± 0.11
19,SKICLVCGDEASGCHYGVVDCGSCKVFFKRAVEGQHNYLCAGRNDCIIDKIRRKNCPACRLQKCLQAGMNLGARKS,-0.49 ± 0.24
20,SKICLVCGDEASGCHYGVVRCGSCKVFFKRAVEGQHNYLCAGRNDCIIDKIRRKNCPACRLQKCLQAGMNLGARKS,-0.75 ± 0.085
21,SKICLVCGDEASGCHYGVVGCGSCKVFFKRAVEGQHNYLCAGRNDCIIDKIRRKNCPACRLQKCLQAGMNLGARKS,-0.067 ± 0.046
22,SKICLVCGDEASGCHYGVVTCDSCKVFFKRAVEGQHNYLCAGRNDCIIDKIRRKNCPACRLQKCLQAGMNLGARKS,0.008 ± 0.11
23,SKICLVCGDEASGCHYGVVTCASCKVFFKRAVEGQHNYLCAGRNDCIIDKIRRKNCPACRLQKCLQAGMNLGARKS,-0.013 ± 0.044
24,SKICLVCGDEASGCHYGVVTCCSCKVFFKRAVEGQHNYLCAGRNDCIIDKIRRKNCPACRLQKCLQAGMNLGARKS,-0.178 ± 0.072

row,Variant,abundance fitness
1,SKICLVCGDEASGCHYGVQTCGSCKVFFKRAVEGQHNYLCAGRNDCIIDKIRRKNCPACRLQKCLQAGMNLGARKS,-0.02 ± 0.064
2,SKICLVCGDEASGCHYGVDTCGSCKVFFKRAVEGQHNYLCAGRNDCIIDKIRRKNCPACRLQKCLQAGMNLGARKS,-0.008 ± 0.11
3,SKICLVCGDEASGCHYGVATCGSCKVFFKRAVEGQHNYLCAGRNDCIIDKIRRKNCPACRLQKCLQAGMNLGARKS,0.029 ± 0.048
4,SKICLVCGDEASGCHYGVGTCGSCKVFFKRAVEGQHNYLCAGRNDCIIDKIRRKNCPACRLQKCLQAGMNLGARKS,-0.082 ± 0.035
5,SKICLVCGDEASGCHYGVRTCGSCKVFFKRAVEGQHNYLCAGRNDCIIDKIRRKNCPACRLQKCLQAGMNLGARKS,-0.019 ± 0.038
6,SKICLVCGDEASGCHYGVYTCGSCKVFFKRAVEGQHNYLCAGRNDCIIDKIRRKNCPACRLQKCLQAGMNLGARKS,-0.247 ± 0.11
7,SKICLVCGDEASGCHYGVITCGSCKVFFKRAVEGQHNYLCAGRNDCIIDKIRRKNCPACRLQKCLQAGMNLGARKS,-0.086 ± 0.079
8,SKICLVCGDEASGCHYGVMTCGSCKVFFKRAVEGQHNYLCAGRNDCIIDKIRRKNCPACRLQKCLQAGMNLGARKS,0.115 ± 0.075
9,SKICLVCGDEASGCHYGVNTCGSCKVFFKRAVEGQHNYLCAGRNDCIIDKIRRKNCPACRLQKCLQAGMNLGARKS,0.112 ± 0.082
10,SKICLVCGDEASGCHYGVFTCGSCKVFFKRAVEGQHNYLCAGRNDCIIDKIRRKNCPACRLQKCLQAGMNLGARKS,0.047 ± 0.076
11,SKICLVCGDEASGCHYGVWTCGSCKVFFKRAVEGQHNYLCAGRNDCIIDKIRRKNCPACRLQKCLQAGMNLGARKS,-0.058 ± 0.05
12,SKICLVCGDEASGCHYGVSTCGSCKVFFKRAVEGQHNYLCAGRNDCIIDKIRRKNCPACRLQKCLQAGMNLGARKS,0.038 ± 0.053
13,SKICLVCGDEASGCHYGVPTCGSCKVFFKRAVEGQHNYLCAGRNDCIIDKIRRKNCPACRLQKCLQAGMNLGARKS,0.001 ± 0.058
14,SKICLVCGDEASGCHYGVKTCGSCKVFFKRAVEGQHNYLCAGRNDCIIDKIRRKNCPACRLQKCLQAGMNLGARKS,0.007 ± 0.051
15,SKICLVCGDEASGCHYGVCTCGSCKVFFKRAVEGQHNYLCAGRNDCIIDKIRRKNCPACRLQKCLQAGMNLGARKS,-0.108 ± 0.067
16,SKICLVCGDEASGCHYGVHTCGSCKVFFKRAVEGQHNYLCAGRNDCIIDKIRRKNCPACRLQKCLQAGMNLGARKS,-0.091 ± 0.087
17,SKICLVCGDEASGCHYGVTTCGSCKVFFKRAVEGQHNYLCAGRNDCIIDKIRRKNCPACRLQKCLQAGMNLGARKS,-0.113 ± 0.056
18,SKICLVCGDEASGCHYGVETCGSCKVFFKRAVEGQHNYLCAGRNDCIIDKIRRKNCPACRLQKCLQAGMNLGARKS,0.032 ± 0.056
19,SKICLVCGDEASGCHYGDVTCGSCKVFFKRAVEGQHNYLCAGRNDCIIDKIRRKNCPACRLQKCLQAGMNLGARKS,-0.155 ± 0.092
20,SKICLVCGDEASGCHYGTVTCGSCKVFFKRAVEGQHNYLCAGRNDCIIDKIRRKNCPACRLQKCLQAGMNLGARKS,-0.444 ± 0.5
21,SKICLVCGDEASGCHYGIVTCGSCKVFFKRAVEGQHNYLCAGRNDCIIDKIRRKNCPACRLQKCLQAGMNLGARKS,0.045 ± 0.22
22,SKICLVCGDEASGCHYGPVTCGSCKVFFKRAVEGQHNYLCAGRNDCIIDKIRRKNCPACRLQKCLQAGMNLGARKS,-0.157 ± 0.062
23,SKICLVCGDEASGCHYGWVTCGSCKVFFKRAVEGQHNYLCAGRNDCIIDKIRRKNCPACRLQKCLQAGMNLGARKS,-0.457 ± 0.066
24,SKICLVCGDEASGCHYGCVTCGSCKVFFKRAVEGQHNYLCAGRNDCIIDKIRRKNCPACRLQKCLQAGMNLGARKS,0.112 ± 0.061

row,Variant,abundance fitness
1,SKICLVCGDEASGCHYGFVTCGSCKVFFKRAVEGQHNYLCAGRNDCIIDKIRRKNCPACRLQKCLQAGMNLGARKS,-0.274 ± 0.098
2,SKICLVCGDEASGCHYGYVTCGSCKVFFKRAVEGQHNYLCAGRNDCIIDKIRRKNCPACRLQKCLQAGMNLGARKS,-0.284 ± 0.1
3,SKICLVCGDEASGCHYGLVTCGSCKVFFKRAVEGQHNYLCAGRNDCIIDKIRRKNCPACRLQKCLQAGMNLGARKS,-0.06 ± 0.044
4,SKICLVCGDEASGCHYGMVTCGSCKVFFKRAVEGQHNYLCAGRNDCIIDKIRRKNCPACRLQKCLQAGMNLGARKS,-0.233 ± 0.25
5,SKICLVCGDEASGCHYGGVTCGSCKVFFKRAVEGQHNYLCAGRNDCIIDKIRRKNCPACRLQKCLQAGMNLGARKS,-0.117 ± 0.042
6,SKICLVCGDEASGCHYGKVTCGSCKVFFKRAVEGQHNYLCAGRNDCIIDKIRRKNCPACRLQKCLQAGMNLGARKS,-0.101 ± 0.22
7,SKICLVCGDEASGCHYGQVTCGSCKVFFKRAVEGQHNYLCAGRNDCIIDKIRRKNCPACRLQKCLQAGMNLGARKS,-0.15 ± 0.067
8,SKICLVCGDEASGCHYGHVTCGSCKVFFKRAVEGQHNYLCAGRNDCIIDKIRRKNCPACRLQKCLQAGMNLGARKS,-0.333 ± 0.13
9,SKICLVCGDEASGCHYGRVTCGSCKVFFKRAVEGQHNYLCAGRNDCIIDKIRRKNCPACRLQKCLQAGMNLGARKS,-0.078 ± 0.048
10,SKICLVCGDEASGCHYGEVTCGSCKVFFKRAVEGQHNYLCAGRNDCIIDKIRRKNCPACRLQKCLQAGMNLGARKS,-0.202 ± 0.06
11,SKICLVCGDEASGCHYGVVTAGSCKVFFKRAVEGQHNYLCAGRNDCIIDKIRRKNCPACRLQKCLQAGMNLGARKS,-0.977 ± 0.16
12,SKICLVCGDEASGCHYGVVTPGSCKVFFKRAVEGQHNYLCAGRNDCIIDKIRRKNCPACRLQKCLQAGMNLGARKS,-1.05 ± 0.19
13,SKICLVCGDEASGCHYGVVTIGSCKVFFKRAVEGQHNYLCAGRNDCIIDKIRRKNCPACRLQKCLQAGMNLGARKS,-0.803 ± 0.26
14,SKICLVCGDEASGCHYGVVTGGSCKVFFKRAVEGQHNYLCAGRNDCIIDKIRRKNCPACRLQKCLQAGMNLGARKS,-1.03 ± 0.13
15,SKICLVCGDEASGCHYGVVTMGSCKVFFKRAVEGQHNYLCAGRNDCIIDKIRRKNCPACRLQKCLQAGMNLGARKS,-0.969 ± 0.2
16,SKICLVCGDEASGCHYGVVTRGSCKVFFKRAVEGQHNYLCAGRNDCIIDKIRRKNCPACRLQKCLQAGMNLGARKS,-0.962 ± 0.11
17,SKICLVCGDEASGCHYGVVTEGSCKVFFKRAVEGQHNYLCAGRNDCIIDKIRRKNCPACRLQKCLQAGMNLGARKS,-0.854 ± 0.11
18,SKICLVCGDEASGCHYGVVTQGSCKVFFKRAVEGQHNYLCAGRNDCIIDKIRRKNCPACRLQKCLQAGMNLGARKS,-0.567 ± 0.17
19,SKICLVCGDEASGCHYGVVTYGSCKVFFKRAVEGQHNYLCAGRNDCIIDKIRRKNCPACRLQKCLQAGMNLGARKS,-0.731 ± 0.32
20,SKICLVCGDEASGCHYGVVTKGSCKVFFKRAVEGQHNYLCAGRNDCIIDKIRRKNCPACRLQKCLQAGMNLGARKS,-1.25 ± 0.32
21,SKICLVCGDEASGCHYGVVTWGSCKVFFKRAVEGQHNYLCAGRNDCIIDKIRRKNCPACRLQKCLQAGMNLGARKS,-1.22 ± 0.26
22,SKICLVCGDEASGCHYGVVTFGSCKVFFKRAVEGQHNYLCAGRNDCIIDKIRRKNCPACRLQKCLQAGMNLGARKS,-0.515 ± 0.19
23,SKICLVCGDEASGCHYGVVTVGSCKVFFKRAVEGQHNYLCAGRNDCIIDKIRRKNCPACRLQKCLQAGMNLGARKS,-1.11 ± 0.16
24,SKICLVCGDEASGCHYGVVTTGSCKVFFKRAVEGQHNYLCAGRNDCIIDKIRRKNCPACRLQKCLQAGMNLGARKS,-1.22 ± 0.26
